The labels stand for the following.
B1: lysozyme-binding quenchbody (Qb-Lys), wild type (VHH)
VHH: DVQLVESGGGSVQAGGSLRLSCAASGYIASINYLGWFRQAPGKEREGVAAVSPAGGTPYYADSVKGRFTVSLDNAENTVYLQMNSLKPEDTALYYCAAARQGWYIPLNSYGYNYWGQGTQVTVSS
notes: the labelled, eluted form stood in the fluorescence assays; also called lysozyme quenchbody; source: NEBExpress cell-free E. coli protein synthesis (IVTT); not shown: Cys-tag, N-terminal, kept
B2: lysozyme quenchbody (Qb-Lys) Y110W (VHH)
VHH: B1 VHH with Y110W
notes: as the VHH of m2 (nanobody chain of PDB 1ZVH in the cassette) with the stated change; source: NEBExpress cell-free E. coli protein synthesis (IVTT); not shown: Cys-tag, N-terminal, kept
B3: lysozyme quenchbody (Qb-Lys) Y104W (VHH)
VHH: B1 VHH with Y104W
notes: as for B2
B4: lysozyme quenchbody (Qb-Lys) Y27W/Y104W (VHH)
VHH: B1 VHH with Y27W, Y104W
notes: as the VHH of m2 (nanobody chain of PDB 1ZVH in the cassette) with the stated changes; Member of the 'single, pairwise, and triple Y27W, Y104W and Y110W mutants'; the combination is counted out from that phrase; also called pairwise mutant Y27W, Y104W; source: NEBExpress cell-free E. coli protein synthesis (IVTT); captured on anti-FLAG magnetic beads from the crude IVTT mixture (pull-down)
B5: lysozyme quenchbody (Qb-Lys) Y104W/Y110W (VHH)
VHH: B1 VHH with Y104W, Y110W
notes: as the VHH of m2 (nanobody chain of PDB 1ZVH in the cassette) with the stated changes; Member of the 'single, pairwise, and triple Y27W, Y104W and Y110W mutants'; the combination is counted out from that phrase; also called pairwise mutant Y104W, Y110W; source: NEBExpress cell-free E. coli protein synthesis (IVTT); not shown: Cys-tag, N-terminal, kept
B6: lysozyme quenchbody (Qb-Lys) Y27W (VHH)
VHH: B1 VHH with Y27W
notes: as for B2
B7: lysozyme quenchbody (Qb-Lys) Y27W/Y104W/Y110W (VHH)
VHH: B1 VHH with Y27W, Y104W, Y110W
notes: as the VHH of m2 (nanobody chain of PDB 1ZVH in the cassette) with the stated changes; also called triple mutant Y27W, Y104W, Y110W; source: NEBExpress cell-free E. coli protein synthesis (IVTT); captured on anti-FLAG magnetic beads from the crude IVTT mixture (pull-down)
B8: lysozyme quenchbody (Qb-Lys) Y27W/Y110W (VHH)
VHH: B1 VHH with Y27W, Y110W
notes: as the VHH of m2 (nanobody chain of PDB 1ZVH in the cassette) with the stated changes; Member of the 'single, pairwise, and triple Y27W, Y104W and Y110W mutants'; the combination is counted out from that phrase; also called pairwise mutant Y27W, Y110W; source: NEBExpress cell-free E. coli protein synthesis (IVTT); not shown: Cys-tag, N-terminal, kept
B9: lysozyme quenchbody (Qb-Lys) W103Y (VHH)
VHH: B1 VHH with W103Y
notes: as for B2

Numbering of substitutions follows the chain as printed. Numbers in names are those of the source.

The target in the first assay is T1, lysozyme (Gallus gallus (Chicken)., UniProt P00698).
T1 construct: lysozyme, ~15 kDa on SDS-PAGE
T1 sequence (P00698 19-147): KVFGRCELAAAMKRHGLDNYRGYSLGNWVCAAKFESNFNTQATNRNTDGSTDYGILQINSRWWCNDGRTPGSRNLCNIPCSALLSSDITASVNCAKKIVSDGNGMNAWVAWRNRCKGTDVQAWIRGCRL
The assay is described as follows: other fluorescence titration; 20 nM TAMRA-labelled quenchbody in PBS/0.05% Tween-20 with 1-8000 nM antigen, 1 h at room temperature (legend: 60 min, 25 °C), 384-well plate, excitation 535 ± 20 nm, emission 585 ± 30 nm; fit to single site-specific binding with Hill slope; EC50 as a proxy for KD. To be noted: both partners purified.
Molecule B1 displayed a half-maximal effective concentration (EC50) of 7 nM.

For a further assay, the target named is T1, lysozyme. The assay can be described thus: fluorescence intensity plate assay at one antigen concentration (fold-sense); 20 nM TAMRA-labelled quenchbody variants in PBS/0.05% Tween-20 with and without antigen (500 nM lysozyme or MBP in Fig. 3B and 3E; concentration not stated for Fig. 3C and 3F); fold-sense = fluorescence with antigen relative to 0 nM antigen. As to conditions: both partners purified.
Turning to B2, the “fold-sense (fluorescence with antigen relative to without)” value stood at 1.7 fold. On to B1, for which the “fold-sense (fluorescence with antigen relative to without)” value worked out at 1.3 fold.

The next assay concerns the target T1, lysozyme. The assay is described as follows: pull-down; FLAG-tagged quenchbody from the crude IVTT mixture bound to anti-FLAG magnetic agarose beads, combined with 100 uL of 1 uM MBP or 10 uM lysozyme, 30 min, room temperature, 1200 rpm; 6 washes with PBS; eluted with 3x FLAG peptide; reducing SDS-PAGE; semi-quantitative comparison with the wild type. To be noted: one partner purified.
For the molecule B3, the binding result is reported as “binds”. The same measure, in the same setting: then B4, with “binds”. Still for that read-out and setting: under B5 stands “binds”; under B6, “binds”; under B7, “binds”. For B8, the binding result is “binds”. On to B9, for which the binding result is recorded as “binds”.

These data come from publication PMC12177037 (Communications Biology, 2025).
